Source: patent publication US20210079109A1 (Regeneron, published 2021)

T1: human CD63 (human, UniProt P08962 2-238)
T1 construct: stably transfected in NIH3T3/hCD63; The cell line is named under assay; also called hCD63
T1 sequence: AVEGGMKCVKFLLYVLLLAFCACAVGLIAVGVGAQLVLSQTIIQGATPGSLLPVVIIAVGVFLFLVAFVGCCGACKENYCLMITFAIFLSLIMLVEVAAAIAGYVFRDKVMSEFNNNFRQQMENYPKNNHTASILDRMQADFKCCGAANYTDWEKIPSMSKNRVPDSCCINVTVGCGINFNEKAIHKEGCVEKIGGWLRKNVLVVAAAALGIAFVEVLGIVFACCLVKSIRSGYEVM


What was measured:
human CD63 [1] = molecular target: T1, human CD63; assay: ECL, LNCAP cells
Method in brief: (§1)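 Detached cells (~2.0×10⁴/well: NIH3T3/hCD63, LNCAP, U87MG, or parental NIH3T3 as negative control) were plated on carbon-electrode plates and blocked with 2% BSA. Anti-CD63 or isotype antibodies (1.7 pM–100 nM, in duplicate) were bound 1 h at RT, then washed. Signal read as electrochemiluminescence.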

[2] = molecular target: T2, recombinant human CD63 extracellular loop 2 expressed with a C-terminal Myc-Myc-hexahistidine (human); assay: SPR Biacore, mAb captured, 25C
T2 construct: also called hCD63 EC loop 2-MMH; human CD63 EC loop 2-MMH
Method in brief: (§2)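 Anti-CD63 mAbs captured on anti-mouse Fc or anti-human Fab surfaces; CD63 EC2 reagents flowed in HBS-ET, pH 7.4, at 25° C or 37° C. ka and kd from 1:1 binding model with mass transport limitation; KD and t½ calculated from kinetic rates.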

[3] = molecular target: T3, recombinant human CD63 extracellular loop 2 expressed with a C-terminal human Fc tag (human); assay: SPR Biacore, mAb captured, 25C
T3 construct: also called hCD63 EC loop 2-hFc; human CD63 EC loop 2-Fc
Method in brief: as §2

human CD63 [4] = molecular target: T1, human CD63; assay: ECL, U87MG cells
Method in brief: as §1

[5] = molecular target: T2, recombinant human CD63 extracellular …; assay: SPR Biacore, mAb captured, 37C
Method in brief: as §2

[6] = molecular target: T3, recombinant human CD63 extracellular …; assay: SPR Biacore, mAb captured, 37C
Method in brief: as §2

human CD63 [7] = molecular target: T1, human CD63; assay: ECL, NIH3T3/hCD63 cells
Method in brief: as §1

human CD63 [8] = molecular target: T1, human CD63; assay: imaging of stained T47D cells, 10 ug/mL antibody
Experimental: To stain, quadruplicate plates of cells were incubated with 10 μg/mL of anti-CD63 antibodies that was diluted in 2% FBS in PBS, without Calcium and Magnesium (Irving, Cat #9240) (staining buffer) for 30 minutes at 4° C. […] Two plates were immediately fixed and stained with 4% paraformaldehyde (PFA; ThermoFisher, Cat #28908)+5 uM DRAQ5 (ThermoFisher, Cat #62251) in PBS for 20 minutes (non-internalization plates). The remaining two plates were incubated with growth media at 37° C. for 2 hours followed by fixation and staining for 20 minutes using a solution of 4% PFA+5 μM DRAQ5 diluted in PBS (internalization plates). After fixation, all plates were washed once with PBS. One non-internalization plate and one internalization plate were incubated with an anti-Alexa Fluor 488 antibody (Regeneron) at 50 μg/mL in PBS overnight at 4° C. to quench surface Alexa Fluor 488 fluorescence. The remaining plates were incubated with PBS only. Confocal images were acquired on the Opera Phenix (Perkin Elmer) at 40× magnification. Harmony analysis software (Perkin Elmer) was utilized to identify DRAQ5-labeled cells and the total Alexa-Fluor 488 relative fluorescent units (RFU) per cell was determined. The total binding at 4° C. (RFU values of 4° C. unquenched wells), total binding at 37° C. (RFU values of 37° C. unquenched wells), the total internalized RFU, and the % Internalization were determined for each antibody as shown in Table 1. For all calculations, background fluorescence from 2nd Ab only control wells were subtracted from every well. Total internalized RFU was calculated as follows: Total RFU of 37° C. unquenched samples−Surface RFU at 37° C. Surface RFU is defined as unquenched RFU at 37° C.−quenched RFU at 37° C.)/QE. QE (quenching efficiency) is defined as: 1−(Total RFU of 4° C. quenched sample/Total RFU of 4° C. unquenched sample). The % Internalization was determined from the following formula: (Total internalized RFU at 37° C./Total RFU at 37° C.)*100.

human CD63 [9] = molecular target: T1, human CD63; assay: cell-based or functional assay
human CD63 [10] = molecular target: T1, human CD63; assay: ECL, LNCAP cells; LNCAP cells (lower CD63 copy number), ratio at 3.7 nM Ab: non-binder
Experimental: (§3) LNCAP cells were determined to have a lower human CD63 copy number than U87MG cells. Non-transfected NIH3T3 cells, which have no detectable expression of human CD63 by fluorescence activated cell sorting (FACS), were included as a negative control.
(§4) Briefly, cell lines were rinsed once in PBS buffer without Ca²⁺/Mg²⁺ and incubated for 10 minutes at 37° C. with Enzyme Free Cell Dissociation Solution (Millipore, Cat #S-004-C) to detach the cells. Cells were then washed once with PBS with Ca²⁺/Mg²⁺ and counted with a Cellometer™ Auto T4 cell counter (Nexcelom Bioscience, LLC). Approximately 2.0×10⁴ NIH3T3/hCD63, LNCAP, U87MG or NIH3T3 cells were seeded separately onto 96-well carbon electrode plates […]) and were then incubated for one hour at 37° C. Nonspecific binding sites were blocked with 2% BSA (w/v) in PBS with Ca²⁺/Mg²⁺ for one hour at room temperature (RT). […] Plates were washed and then incubated with Read Buffer (MSD, Cat #R92TD-2) according to the manufacturer's instructions. Luminescent signals were measured using a SECTOR Imager (MSD).

human CD63 [11] = molecular target: T1, human CD63; assay: ECL, U87MG cells; U87MG cells (endogenous CD63), ratio at 3.7 nM Ab: binds, EC50 inconclusive
Experimental: as §3, §4

human CD63 [12] = molecular target: T1, human CD63; assay: ECL, NIH3T3/hCD63 cells; NIH3T3/hCD63 cells (engineered, CD63 overexpressed): binds
Experimental: as §3, §4

human CD63 [13] = molecular target: T1, human CD63; assay: ECL, NIH3T3/hCD63 cells; NIH3T3/hCD63 cells, ratio at 3.7 nM Ab: binds
Experimental: as §3, §4

T3 sequence (chain, as listed by the source limits assumed): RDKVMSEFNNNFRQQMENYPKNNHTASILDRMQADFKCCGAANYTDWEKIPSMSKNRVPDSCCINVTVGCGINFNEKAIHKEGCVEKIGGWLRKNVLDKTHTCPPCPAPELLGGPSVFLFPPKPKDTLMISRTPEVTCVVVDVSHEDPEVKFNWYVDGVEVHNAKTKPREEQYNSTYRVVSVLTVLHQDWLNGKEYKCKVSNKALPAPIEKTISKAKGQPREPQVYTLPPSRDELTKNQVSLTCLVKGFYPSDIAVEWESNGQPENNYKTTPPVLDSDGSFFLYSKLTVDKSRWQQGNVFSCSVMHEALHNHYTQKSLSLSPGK
T2 sequence (chain, as listed by the source limits assumed): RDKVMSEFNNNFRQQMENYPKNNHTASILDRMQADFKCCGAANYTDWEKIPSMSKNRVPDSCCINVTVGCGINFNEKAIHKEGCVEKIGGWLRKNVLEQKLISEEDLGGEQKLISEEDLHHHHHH

| Binder | 100 nM Ag Bound (RU) [2] [RU] | Kd [2] [µM] | koff [2] [s⁻¹] | kon [2] [M⁻¹ s⁻¹] | t1/2 [2] [min] | 100 nM Ag Bound (RU) [3] [RU] | Kd [3] [nM] | koff [3] [s⁻¹] | kon [3] [M⁻¹ s⁻¹] | t1/2 [3] [min] | 100 nM Ag Bound (RU) [5] [RU] | Kd [5] [nM] | koff [5] [s⁻¹] | kon [5] [M⁻¹ s⁻¹] | t1/2 [5] [min] | 100 nM Ag Bound (RU) [6] [RU] | Kd [6] [nM] | koff [6] [s⁻¹] | kon [6] [M⁻¹ s⁻¹] | t1/2 [6] [min] | further results |
| --- | --- | --- | --- | --- | --- | --- | --- | --- | --- | --- | --- | --- | --- | --- | --- | --- | --- | --- | --- | --- | --- |
| H1M12390N (antibody, V domains shown) VH: QVHLVESGGGLVKPGGSLRLSCAASGFIFSDYYMSWIRQAPGKGLEWVSYIRGSGYNADSVQGRFTISRDNAKNSLFLQMNSLRAEDTAVYYCARGYSFGYGFFDYWGQGTLVTVSS VL: not shown | 54 | 0.0104 | 0.00336 | 323000 | 3 | 150 | 1.89 | 0.000991 | 523000 | 12 | 38 | 35.6 | 0.0149 | 419000 | 1 | 134 | 0.546 | 0.000495 | 907000 | 23 | EC50 (human CD63 [1]): 0.3 nM; binding ratio at 3.7 nM vs NIH3T3 (human CD63 [1]): 31 fold; EC50 (human CD63 [4]): 0.36 nM; binding ratio at 3.7 nM vs NIH3T3 (human CD63 [4]): 339 fold; EC50 (human CD63 [7]): 0.48 nM; binding ratio at 3.7 nM vs NIH3T3 (human CD63 [7]): 559 fold |
| H4H12450N (antibody, V domains shown) VH: QVQLQESGPKVVKPSETLSLTCTVSGGSISSYYWNWIRQSPGKGLEWIGYTKRGYTDYNPSLRSRVTISEDTSKNQFSLRISSVTAADTAVYYCAQMGWGSHAFDMWGQGTMVAVSS VL: not shown |  |  |  |  |  |  |  |  |  |  |  |  |  |  |  |  |  |  |  |  | Total RFU at 4C (human CD63 [8]): 2.1e+06 RFU; Total RFU at 37C (2 h) (human CD63 [8]): 2.08e+06 RFU; % Internalization, T47D cells (human CD63 [9]): 68.1%; Total Internalized RFU, T47D cells (human CD63 [9]): 1.42e+06 RFU |
| H4H11998P2 (antibody, V domains shown) VH: QVQLVESGGGLVKPGGSLRLSCAASGFSFSDYYITWIRQAPGKGLEWVSYINTGGYTMYYADSVKGRFTISRDNAKNSLYLQMNNLRAEDTAVYYCTRDRRYNFGLDYWGQGTLVTVSS VL: not shown | 11 | 11.7 | 0.0309 | 2640 | 0.4 | 136 | 2.58 | 0.000453 | 175000 | 26 | 3 | 174 | 0.0917 | 528000 | 0.1 | 111 | 6.5 | 0.00207 | 318000 | 6 | binding ratio at 3.7 nM vs NIH3T3 (human CD63 [10]): 1 fold; binding ratio at 3.7 nM vs NIH3T3 (human CD63 [11]): 5 fold; EC50 (human CD63 [12]): 7.4 nM; binding ratio at 3.7 nM vs NIH3T3 (human CD63 [13]): 14 fold |
